This note sets out measurements from patent publication US20190284293A1, “COMBINATION THERAPY WITH ANTI-CD73 ANTIBODIES” (BRISTOL-MYERS SQUIBB COMPANY, priority 2016, published 2019).

Numbering of substitutions follows the chain as printed.

B1: mAb8-IgG2.3G1-AY-V27 (protein)
constant: ASTKGPSVFPLAPCSRSTSESTAALGCLVKDYFPEPVTVSWNSGALTSGVHTFPAVLQSSGLYSLSSVVTVPSSNFGTQTYTCNVDHKPSNTKVDKTVERKSCVECPPCPAPELLGGPSVFLFPPKPKDTLMISRTPEVTCVVVDVEHEDPEVKFNWYVDGVEVHNAKTKPREEQYNSTYRVVSVLTVLHQDWLNGKEYKCKVSNKALPAPIEKTISKAKGQPREPQVYTLPPSREEMTKNQVSLTCLVKGFYPSDIAVEWESNGQPENNYKTTPPVLDSDGSFFLYSKLTVDKSRWQQGNVFSCSVMHEALHNHYTQKSLSLSPGK
modifications: left off: another chain or arm of the molecule
B2: mAb10-IgG2.3G1-AY-V27 (protein)
constant: B1 constant
modifications: left off: another chain or arm of the molecule
B3: mAb11-IgG2.3 (protein)
constant: ASTKGPSVFPLAPCSRSTSESTAALGCLVKDYFPEPVTVSWNSGALTSGVHTFPAVLQSSGLYSLSSVVTVPSSNFGTQTYTCNVDHKPSNTKVDKTVERKSCVECPPCPAPPVAGPSVFLFPPKPKDTLMISRTPEVTCVVVDVSHEDPEVQFNWYVDGVEVHNAKTKPREEQFNSTFRVVSVLTVVHQDWLNGKEYKCKVSNKGLPAPIEKTISKTKGQPREPQVYTLPPSREEMTKNQVSLTCLVKGFYPSDIAVEWESNGQPENNYKTTPPMLDSDGSFFLYSKLTVDKSRWQQGNVFSCSVMHEALHNHYTQKSLSLSPGK
modifications: left off: another chain or arm of the molecule
B4: mAb11-IgG2.5 (protein)
constant: B3 constant with C14S, S102C
modifications: left off: another chain or arm of the molecule
B5: mAb7-IgG2.5 (protein)
constant: B3 constant with C14S, S102C
modifications: left off: another chain or arm of the molecule
B6: mAb10-IgG2.5 (protein)
constant: B3 constant with C14S, S102C
modifications: left off: another chain or arm of the molecule
B7: mAb5-IgG2.3 (protein)
constant: B3 constant
modifications: left off: another chain or arm of the molecule
B8: mAb6-IgG2.3 (protein)
constant: B3 constant
modifications: left off: another chain or arm of the molecule
B9: mAb4-IgG2.3 (protein)
constant: B3 constant
modifications: left off: another chain or arm of the molecule
B10: mAb13-IgG2.3 (protein)
constant: B3 constant
modifications: left off: another chain or arm of the molecule
B11: mAb12-IgG2.3 (protein)
constant: B3 constant
modifications: left off: another chain or arm of the molecule
B12: mAb12-IgG2.5 (protein)
constant: B3 constant with C14S, S102C
modifications: left off: another chain or arm of the molecule

CD64 (FcgRI), sequence (P12314 16-374): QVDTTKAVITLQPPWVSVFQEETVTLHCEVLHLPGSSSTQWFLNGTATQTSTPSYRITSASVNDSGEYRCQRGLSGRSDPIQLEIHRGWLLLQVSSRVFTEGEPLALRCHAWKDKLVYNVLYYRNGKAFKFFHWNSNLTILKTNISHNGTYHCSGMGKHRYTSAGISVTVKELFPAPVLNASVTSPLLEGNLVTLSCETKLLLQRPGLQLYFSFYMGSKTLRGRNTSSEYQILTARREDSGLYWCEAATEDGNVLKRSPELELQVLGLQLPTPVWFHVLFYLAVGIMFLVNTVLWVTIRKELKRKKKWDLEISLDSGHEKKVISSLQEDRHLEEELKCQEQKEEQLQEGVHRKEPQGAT
CD16a-V158 (FcgRIIIa-V158), sequence (P08637 17-208 F176V limits assumed): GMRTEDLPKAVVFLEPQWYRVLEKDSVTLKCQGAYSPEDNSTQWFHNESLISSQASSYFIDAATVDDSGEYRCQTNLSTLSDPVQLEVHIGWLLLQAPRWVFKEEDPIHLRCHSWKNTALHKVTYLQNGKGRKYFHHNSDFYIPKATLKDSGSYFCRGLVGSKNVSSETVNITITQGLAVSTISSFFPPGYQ

The first experiment addresses CD64 (FcgRI) (Homo sapiens, UniProt P12314). Kind of experiment: SPR, antibody binding to anti-his Fab captured FcgR-his (% Rmax). The conditions noted are these: 1 μM antibody. On the procedure: (§1) The binding of antibodies to Fc gamma receptors (FcγRs or FcgRs) was studied using biosensor technologies including Biacore surface plasmon resonance (SPR) and Fortebio Biolayer Interferometry (BLI). SPR studies were performed on a Biacore T100 instrument (GE Healthcare) at 25° C. The Fab fragment from a murine anti-6×His antibody was immobilized on a CM5 sensor chip using EDC/NHS to a density of −3000 RU. Various his-tagged FcgRs (7 ug/ml) were captured via the C-terminal his-tag using a contact time of 30 s at 10 ul/min, and the binding of 1.0 μM antibody was evaluated in a running buffer of 10 mM NaPO4, 130 mM NaCl, 0.05% p20 (PBS-T) pH 7.1. FcgRs used for these experiments included CD64 (FcgRI), CD32a-H131 (FcgRIIa-H131), CD32a-R131 (FcgRIIa-R131), CD32b (FcgRIIb), CD16a-V158 (FcgRIIIa-V158), CD16b-NA1 (FcgRIIIb-NA1), and CD16B-NA2 (FcgRIIIb-NA2). BLI experiments were performed on a Fortebio Octet RED instrument (Pall, Fortebio) at 25° C. in 10 mM NaPO4, 130 mM NaCl, 0.05% p20 (PBS-T) pH 7.1. Antibodies were captured out of undiluted expression supernatants on protein A coated sensors, followed by the binding of 1 μM hCD32a-H131, hCD32a-R131, hCD32b, hCD16a-V158, or 0.1 μM hCD64 analytes.
Background: SPR reads the build-up and loss of mass on a sensor chip optically.
Take B1: the “% Rmax hCD64” value worked out at 78%.
On the same count and under the same terms, for B2 the value was 69%.
On to B3, for which the “% Rmax hCD64” value came to 2%.
Still for that read-out and setting: the same measure for B4: 0%.
On the same count and under the same terms, the same measure for B5: 4%; for B6: 1%.
On the same count and under the same terms, the same measure for B7: 6%; for B8: 3%; for B9: 1%.
Consider B10, for which the “% Rmax hCD64” value was 2%.
The same measure, in the same setting: for B11 the value was 2%.
On to B12, for which the “% Rmax hCD64” value turned out to be 1%.

The target of a further experiment is CD16B-NA2 (FcgRIIIb-NA2) (Homo sapiens, UniProt O75015). The description is as above. The conditions noted are these: 1 μM antibody. The protocol: as §1
CD16B-NA2 (FcgRIIIb-NA2), sequence (O75015 17-200 limits assumed): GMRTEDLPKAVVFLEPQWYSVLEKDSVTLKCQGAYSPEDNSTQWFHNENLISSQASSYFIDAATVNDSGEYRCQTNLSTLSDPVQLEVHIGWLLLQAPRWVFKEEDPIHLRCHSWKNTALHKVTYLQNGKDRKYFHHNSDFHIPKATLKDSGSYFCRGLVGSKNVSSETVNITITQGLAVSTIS
As for B1, the “% Rmax hCD16B-NA2” value was 7%.
With B2, the “% Rmax hCD16B-NA2” value is 3%.
Consider B3, for which the “% Rmax hCD16B-NA2” value was 0%.
Same read-out and setting: the same measure for B4: −1%.
On the same count and under the same terms, for B5 the value was 0%; for B6, 0%.
Take B7: the “% Rmax hCD16B-NA2” value worked out at 0%.
Same read-out and setting: for B8 the value was 0%; for B9, 0%.
On to B10, for which the “% Rmax hCD16B-NA2” value is given as 0%.
Still for that read-out and setting: for B11 the value was 0%; for B12, 0%.

Another experiment concerns the target T1, CD32b (FcgRIIb) (Homo sapiens, UniProt P31994).
T1 sequence (P31994 43-310): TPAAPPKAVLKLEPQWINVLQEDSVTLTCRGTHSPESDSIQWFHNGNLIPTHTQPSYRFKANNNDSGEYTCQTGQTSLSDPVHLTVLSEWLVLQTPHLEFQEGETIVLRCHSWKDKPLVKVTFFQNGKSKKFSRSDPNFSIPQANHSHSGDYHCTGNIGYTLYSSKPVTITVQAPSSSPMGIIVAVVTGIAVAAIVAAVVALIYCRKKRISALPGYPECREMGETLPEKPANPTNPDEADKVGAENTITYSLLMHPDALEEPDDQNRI
The experiment is described as above. The conditions noted are these: 1 μM antibody. The protocol:
as §1
On to B1, for which the “% Rmax hCD32b” value is on record as 67%.
Take B2: the “% Rmax hCD32b” value amounted to 40%.
Still for that read-out and setting: the same measure for B3: 5%; for B4: 3%; for B5: 2%.
Regarding B6, the “% Rmax hCD32b” value is reported as 1%.
The same measure, in the same setting: the same measure for B7: 4%; for B8: 3%.
The same measure, in the same setting: for B9 the value was 1%; for B10, 1%; for B11, 1%.
Still for that read-out and setting: for B12 the value was 1%.

The next experiment addresses T2, CD32a-H131 (FcgRIIa-H131) (Homo sapiens, UniProt P12318).
T2 sequence (P12318 34-217 limits assumed): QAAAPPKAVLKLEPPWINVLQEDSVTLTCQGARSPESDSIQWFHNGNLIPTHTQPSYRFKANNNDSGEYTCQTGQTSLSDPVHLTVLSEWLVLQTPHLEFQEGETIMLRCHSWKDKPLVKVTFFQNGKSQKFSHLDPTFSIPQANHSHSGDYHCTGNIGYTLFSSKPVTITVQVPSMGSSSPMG
The description is as above. The note with it: 1 μM antibody. On the procedure: as §1
On to B1, for which the “% Rmax hCD32a-H131” value was 67%.
Still for that read-out and setting: the same measure for B3: 44%.
On the same count and under the same terms, the same measure for B4: 40%.
The same measure, in the same setting: for B5 the value was 72%; for B7, 100%.
B8: the “% Rmax hCD32a-H131” value is 66%.
The same measure, in the same setting: for B9 the value was 39%; for B10, 40%; for B11, 39%.

The target of another experiment is T3, CD32a-R131 (FcgRIIa-R131) (Homo sapiens, UniProt P12318, H167R).
T3 sequence (P12318 34-217 H167R limits assumed): T2 sequence (P12318 34-217 limits assumed) with H134R
The experiment is described as above. The note with it: 1 μM antibody. The protocol: as §1
B1: the “% Rmax hCD32a-R131” value is 80%.
Same read-out and setting: the same measure for B2: 57%; for B3: 17%; for B4: 13%.
On the same count and under the same terms, the same measure for B5: 19%.
On to B6, for which the “% Rmax hCD32a-R131” value was 5%.
Same read-out and setting: the same measure for B7: 30%; for B8: 14%; for B9: 6%.
For the molecule B10, the “% Rmax hCD32a-R131” value was 7%.
For the molecule B11, the “% Rmax hCD32a-R131” value stood at 7%.
Consider B12, for which the “% Rmax hCD32a-R131” value was 6%.

Another experiment addresses CD16a-V158 (FcgRIIIa-V158) (Homo sapiens, UniProt P08637, F176V). Described as above. The note with it: 1 μM antibody. The protocol:
as §1
Consider B2, for which the “% Rmax hCD16a-V158” value came out at 12%.
Same read-out and setting: for B3 the value was 1%; for B4, 0%.
Same read-out and setting: for B5 the value was 2%; for B6, 1%; for B7, 3%.
Turning to B8, the “% Rmax hCD16a-V158” value stood at 1%.
Still for that read-out and setting: the same measure for B9: 1%; for B10: 1%; for B11: 1%.
The same measure, in the same setting: for B12 the value was 1%.
